# According to paper PMC10397247:
# T1: P5-AA-1HGe-Y
# T1 chain: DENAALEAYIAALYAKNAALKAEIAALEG
# T2: O7-AA
# T2 chain: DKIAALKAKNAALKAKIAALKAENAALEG
# T3: P10-AA
# T3 chain: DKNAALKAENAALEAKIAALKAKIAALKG
# T4: P5-AA-1HGe-A
# T4 chain: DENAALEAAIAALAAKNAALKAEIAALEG
# T5: P5-AA-1HGe-R
# T5 chain: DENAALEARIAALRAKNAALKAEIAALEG
# T6: O6-AA
# T6 chain: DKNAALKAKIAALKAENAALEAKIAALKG
# T7: P5-AA-1HGe-M
# T7 chain: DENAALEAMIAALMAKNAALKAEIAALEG
# T8: P9-AA
# T8 chain: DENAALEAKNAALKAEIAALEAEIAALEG
# T9: O8-AA
# T9 chain: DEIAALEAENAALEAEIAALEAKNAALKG
# T10: P5-AA-1HGe-S
# T10 chain: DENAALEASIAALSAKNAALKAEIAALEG
# T11: P5-AA-1HGe-D
# T11 chain: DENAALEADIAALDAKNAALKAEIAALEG
# T12: P5-AA-1HGe-H
# T12 chain: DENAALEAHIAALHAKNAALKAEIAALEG
# T13: P5-AA-1HGe-T
# T13 chain: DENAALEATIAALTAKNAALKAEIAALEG
# T14: P5-AA-1HGe-W
# T14 chain: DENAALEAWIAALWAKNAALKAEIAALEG
# T15: P5-AA-1HGe-Q
# T15 chain: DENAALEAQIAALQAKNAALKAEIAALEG
# T16: 4H1262-AA
# T16 chain: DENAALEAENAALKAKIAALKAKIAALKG
# T17: 4H3915-AA
# T17 chain: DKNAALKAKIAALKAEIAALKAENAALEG
# T18: 4H432-AA
# T18 chain: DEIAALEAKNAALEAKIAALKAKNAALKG
# T19: 4H2580-AA
# T19 chain: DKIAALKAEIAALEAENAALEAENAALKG
# T20: 4H3629-AA
# T20 chain: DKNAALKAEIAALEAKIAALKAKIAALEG
# T21: 4H341-AA
# T21 chain: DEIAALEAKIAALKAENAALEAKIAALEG
# T22: 4H380-AA
# T22 chain: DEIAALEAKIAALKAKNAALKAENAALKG
# T23: 4H3449-AA
# T23 chain: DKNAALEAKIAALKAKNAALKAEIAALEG
# T24: 4H3049-AA
# T24 chain: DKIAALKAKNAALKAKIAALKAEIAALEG
# T25: 4H2774-AA
# T25 chain: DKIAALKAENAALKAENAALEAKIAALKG
# T26: 4H133-AA
# T26 chain: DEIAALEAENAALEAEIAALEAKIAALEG
# T27: 4H3094-AA
# T27 chain: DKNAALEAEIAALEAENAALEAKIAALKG
# T28: 4H2903-AA
# T28 chain: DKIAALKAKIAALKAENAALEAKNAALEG
# T29: 4H1349-AA
# T29 chain: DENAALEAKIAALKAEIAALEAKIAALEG
# T30: 4H2947-AA
# T30 chain: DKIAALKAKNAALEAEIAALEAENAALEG
# T31: 4H1449-AA
# T31 chain: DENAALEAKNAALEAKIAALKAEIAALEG
# T32: 4H1593-AA
# T32 chain: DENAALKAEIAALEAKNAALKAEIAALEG
# T33: 4H3619-AA
# T33 chain: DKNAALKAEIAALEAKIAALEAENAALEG
# T34: 4H235-AA
# T34 chain: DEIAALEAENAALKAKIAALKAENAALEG
# T35: 4H446-AA
# T35 chain: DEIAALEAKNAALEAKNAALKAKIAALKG
# T36: 4H2760-AA
# T36 chain: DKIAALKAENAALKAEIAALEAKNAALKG
# T37: 4H2621-AA
# T37 chain: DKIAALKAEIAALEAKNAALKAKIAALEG
# T38: 4H2604-AA
# T38 chain: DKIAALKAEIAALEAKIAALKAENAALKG
# T39: 4H3777-AA
# T39 chain: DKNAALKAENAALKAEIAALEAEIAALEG
# T40: 4H3974-AA
# T40 chain: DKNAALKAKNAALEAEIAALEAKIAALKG
# T41: 4H249-AA
# T41 chain: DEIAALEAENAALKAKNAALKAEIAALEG
# T42: 4H63-AA
# T42 chain: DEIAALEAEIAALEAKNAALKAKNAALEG
# T43: 4H2961-AA
# T43 chain: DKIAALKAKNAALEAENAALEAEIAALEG
# T44: 4H324-AA
# T44 chain: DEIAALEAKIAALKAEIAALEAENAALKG
# T45: 4H1384-AA
# T45 chain: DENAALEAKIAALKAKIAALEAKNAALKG
# T46: 4H1878-AA
# T46 chain: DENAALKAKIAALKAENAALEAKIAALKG
# Key:
# Test in all cases: two-hybrid library CCmax;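 also: natural log of median RNA to DNA barcode read ratio; higher means stronger binding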
# P5-AA-1HGe-Y = biological target: T1, P5-AA-1HGe-Y; conditions: mean of both orientations
# O7-AA = biological target: T2, O7-AA; conditions: mean of both orientations
# P10-AA = biological target: T3, P10-AA; conditions: mean of both orientations
# P5-AA-1HGe-A = biological target: T4, P5-AA-1HGe-A; conditions: mean of both orientations
# P5-AA-1HGe-R = biological target: T5, P5-AA-1HGe-R; conditions: mean of both orientations
# O6-AA = biological target: T6, O6-AA
# P5-AA-1HGe-M = biological target: T7, P5-AA-1HGe-M; conditions: mean of both orientations
# P9-AA = biological target: T8, P9-AA; conditions: mean of both orientations
# O8-AA = biological target: T9, O8-AA; conditions: mean of both orientations
# P5-AA-1HGe-S = biological target: T10, P5-AA-1HGe-S; conditions: mean of both orientations
# P5-AA-1HGe-D = biological target: T11, P5-AA-1HGe-D; conditions: mean of both orientations
# P5-AA-1HGe-H = biological target: T12, P5-AA-1HGe-H; conditions: mean of both orientations
# P5-AA-1HGe-T = biological target: T13, P5-AA-1HGe-T; conditions: mean of both orientations
# P5-AA-1HGe-W = biological target: T14, P5-AA-1HGe-W; conditions: mean of both orientations
# P5-AA-1HGe-Q = biological target: T15, P5-AA-1HGe-Q; conditions: mean of both orientations
# 4H1262-AA = biological target: T16, 4H1262-AA
# 4H3915-AA = biological target: T17, 4H3915-AA; conditions: mean of both orientations
# 4H432-AA = biological target: T18, 4H432-AA; conditions: mean of both orientations
# 4H2580-AA = biological target: T19, 4H2580-AA; conditions: mean of both orientations
# 4H3629-AA = biological target: T20, 4H3629-AA; conditions: mean of both orientations
# 4H341-AA = biological target: T21, 4H341-AA; conditions: mean of both orientations
# 4H380-AA = biological target: T22, 4H380-AA; conditions: mean of both orientations
# 4H3449-AA = biological target: T23, 4H3449-AA; conditions: mean of both orientations
# 4H3049-AA = biological target: T24, 4H3049-AA; conditions: mean of both orientations
# 4H2774-AA = biological target: T25, 4H2774-AA; conditions: mean of both orientations
# 4H133-AA = biological target: T26, 4H133-AA; conditions: mean of both orientations
# 4H3094-AA = biological target: T27, 4H3094-AA; conditions: mean of both orientations
# 4H2903-AA = biological target: T28, 4H2903-AA; conditions: mean of both orientations
# 4H1349-AA = biological target: T29, 4H1349-AA; conditions: mean of both orientations
# 4H2947-AA = biological target: T30, 4H2947-AA; conditions: mean of both orientations
# 4H1449-AA = biological target: T31, 4H1449-AA; conditions: mean of both orientations
# 4H1593-AA = biological target: T32, 4H1593-AA; conditions: mean of both orientations
# 4H3619-AA = biological target: T33, 4H3619-AA; conditions: mean of both orientations
# 4H235-AA = biological target: T34, 4H235-AA; conditions: mean of both orientations
# 4H446-AA = biological target: T35, 4H446-AA; conditions: mean of both orientations
# 4H2760-AA = biological target: T36, 4H2760-AA; conditions: mean of both orientations
# 4H2621-AA = biological target: T37, 4H2621-AA; conditions: mean of both orientations
# 4H2604-AA = biological target: T38, 4H2604-AA; conditions: mean of both orientations
# 4H3777-AA = biological target: T39, 4H3777-AA; conditions: mean of both orientations
# 4H3974-AA = biological target: T40, 4H3974-AA; conditions: mean of both orientations
# 4H249-AA = biological target: T41, 4H249-AA; conditions: mean of both orientations
# 4H63-AA = biological target: T42, 4H63-AA; conditions: mean of both orientations
# 4H2961-AA = biological target: T43, 4H2961-AA; conditions: mean of both orientations
# 4H324-AA = biological target: T44, 4H324-AA; conditions: mean of both orientations
# 4H1384-AA = biological target: T45, 4H1384-AA; conditions: mean of both orientations
# 4H1878-AA = biological target: T46, 4H1878-AA; conditions: mean of both orientations
binder,measurement,setting,value
DKNAALKAKIAALKAENAALEAKIAALKG [O6-AA],interaction score,P5-AA-1HGe-Y,1.74
same,interaction score,O7-AA,-0.751
same,interaction score,P10-AA,-1.2
same,interaction score,P5-AA-1HGe-A,2.21
same,interaction score,P5-AA-1HGe-R,1.98
same,interaction score,O6-AA,-0.782
same,interaction score,P5-AA-1HGe-M,2.06
same,interaction score,P9-AA,-0.00244
same,interaction score,O8-AA,1.57
same,interaction score,P5-AA-1HGe-S,1.69
same,interaction score,P5-AA-1HGe-D,1.7
same,interaction score,P5-AA-1HGe-H,1.6
same,interaction score,P5-AA-1HGe-T,2.12
same,interaction score,P5-AA-1HGe-W,1.75
same,interaction score,P5-AA-1HGe-Q,2.25
DENAALEAENAALKAKIAALKAKIAALKG [4H1262-AA],interaction score,4H1262-AA,0.551
same,interaction score,4H3915-AA,-0.487
same,interaction score,4H432-AA,-1.48
same,interaction score,4H2580-AA,-1.41
same,interaction score,4H3629-AA,-0.649
same,interaction score,4H341-AA,-1.06
same,interaction score,4H380-AA,-1.85
same,interaction score,4H3449-AA,-0.766
same,interaction score,4H3049-AA,1.23
same,interaction score,4H2774-AA,1.29
same,interaction score,4H133-AA,1.64
same,interaction score,4H3094-AA,-0.633
same,interaction score,4H2903-AA,-1.83
same,interaction score,4H1349-AA,0.283
same,interaction score,4H2947-AA,0.251
same,interaction score,4H1449-AA,-0.611
same,interaction score,4H1593-AA,-1.34
same,interaction score,4H3619-AA,1.07
same,interaction score,4H235-AA,-0.797
same,interaction score,4H446-AA,-1.67
same,interaction score,4H2760-AA,1.09
same,interaction score,4H2621-AA,-1.25
same,interaction score,4H2604-AA,-0.779
same,interaction score,4H3777-AA,2.49
same,interaction score,4H3974-AA,1.62
same,interaction score,4H249-AA,-0.555
same,interaction score,4H63-AA,-0.668
same,interaction score,4H2961-AA,-0.013
same,interaction score,4H324-AA,-1.15
same,interaction score,4H1384-AA,-0.839
same,interaction score,4H1878-AA,-1.09
